Laboratory results taken from the nanobody polyreactivity screen of Harvey et al. (2022).

Assay: yeast display, Sf9 membrane polyspecificity reagent, FACS + sequencing; frameworks hold sequencing errors
Outline: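 Using colony PCR, genes from sorted yeast display clones were amplified, then sequenced on MiSeq at 2 × 250 and filtered by CDR length. The clones had been stained with 10% biotinylated, detergent-solubilized Sf9 membrane reagent for 1 hour at 4 °C and sorted by FACS into low and high (top ~1%) gates on anti-HA and streptavidin fluorescence. Polyreactivity labels come from the gate of origin.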

Sequence	polyreactivity (PSR sort gate)
QVQLVESGGGLVQAGGSLRLSCAASGFIFTKYVMGWYRQAPGKERELVAAISSGGGRTYYADSVKGRFTISRDNGKYTVYLQMNSQKPEDTAVYYCNIDDERGKLYYWGQGTQVTVSS	high polyreactivity
QVQLVESGGGLVQAGGSLRLSCAASGSIFYYYAMGWDRQENGKESELVAAIDWDGGTTYYADSVMGLFTISRDNAKNTVYLQMNSLKPEDTAVFYCAGEVLYGPGGGYEYWGQGTQVTVSS	high polyreactivity
QVQLVESGGGLVQAGGSLRLSCAASGSIFRWYAMGWYRQAPGKERELVASISSGTRTNYADSVKGRFTISRDNAKNTVYLQMNSLKPEDTAVYYCAAPYVKRWWGYGYWGQGTQVTVSS	high polyreactivity
QVQLVETGGGLVQAGGSLRLSCAASGLIFTINAMGWYRQAPGKERELVAAITNGDSTHYADSVKGRFTISRDNAKNTVYLQMNSLKPEDTAVYYCAARSYTYYGLRFGYWGQGTQVTVSS	high polyreactivity
QVQLVESGGGLVQAGGSLRLSCAASGRTFIGYAMGWYRQAPGKERELAAGISWSGGSTYYADSVKGRFTISRDNAKNTVYLQMNSLKPEDTAVYYCAARGRWSTEYGYWGQGTQVTVSS	low polyreactivity
QVQLVESGGGLVQAGGSLRLSCAASGFTFDNYVMGWYRQAPGKERELVAAISKSGTSTYYADSVKGRFTISRDNAKNTVYLQMNSLKPEDTAVYYCAAALPGYGDYYYWGQGTQVTVSS	high polyreactivity
QDQHVESGVGLVQAGGSLRLSCAASGSIFGNYAMGWYRQAPGKERELVAAIRVSDGRTYDADSVKGRFTISRDNAKNTVYLQMNSLKPEDTAVYYCAAESESSYGPYDYWGQGTQVTVSS	low polyreactivity
QVQLVESGGGLVQAGGSLRLSCAASGSTFRWYAMGWYRQAPGKERELVASITWSGGGTYYADSVKGRFTISRDNAKNTVYFQMNSLKPEDTAVYYCNRRTWRYETRGDDYWGQGTQVTVSS	high polyreactivity
QVQLVESGGGLVQAGGSLRLSCAASGFIFSYYAMGWYRQAPGKERELVAAITSGGSTNYADSVKGRFTISRDNAKNTVYLQMNSLKPEDTAVFYCATAGSGGIGLFYSYDYWGQGTQVTVSS	low polyreactivity
QVQLVESGGGLVQAGGSLRLSSAASGRTFVHYAMGWYRQAPGKERELVAAISWSGGSTYYADSVKGRFTISRDNAKNTVYLQMNSLKPEDTAVYYCNAGGFAPGRYGEFDYWGQGTQVTVSS	low polyreactivity
QVQLVESGGGLVQEGGSLRLSCAASGITFKTYAMGWYRQAPGKESELVATINRGSRTNYADPVKGRFTISRDNAKNTVYLQMNSLKPEDTAVYYCAAHYTTFIPSPDGDYLGQGTQVTVSS	low polyreactivity
QVQLVESGGGLVQAGGSLRLSCAASGFTIYGYAMGGDRQAPGPERELVAAITSRGGSTYYADSVKGRFTISRDNAKNTVYLQMNSLKPEDTAVYYCSKASGIYLGSRYYDVPMDYWGQGTQVTVSS	high polyreactivity
QVQLVESGGGLVQAGGSLRLSCAASGSTFHANAMGWYRQAPGKERELVAAISRSGGSTNYADSVKGRFTISRDNAKNTVYLQMNSLKPEDTAVYYCAKRAWTGYGYYYWGQGTQVTVSS	high polyreactivity
QVQLQESGGGLVQAGGSLRLSCAASGYITYFVGMGWYRQPPGKEREFVASIADGSNTYYADSVKGRFTISRDNAKNTVYLQRNSLKPEDTAVYYCAVVDSWTYRFDYWGQGTQVTVSS	high polyreactivity
QVQLVESGGGLVQAGGSLRLSCAASGRSFYVYAMGWYRQAPGMERELVATITRGGRTYYADSVKGRFTISRDNAKNTVYLQMNSLKPEDTAVSYCNDEDGSRRYRYEYWGHGTQVTVSS	high polyreactivity
QVQLVESGGGLVQAGGSLRLSCAASGSIFKGYTMGWYRQAPGKEREFVASISRRGGSTYYADSVKGRFTISRDNAKNTVYLQMNSLKPDDTAVYYCAKDYGKAYDYWGQGTQVTVSS	high polyreactivity
QVQLVESGGGLVQAGGSLRLSCAASGNTFRWYVMGWYRQAPGKERELVAAITSSGSTTYYADSVKGRFTISRDNAKNTVYLQMNSLKPEDTAVYYCAADGRTITYSPVDYDSWGQGTQVTVSS	low polyreactivity
QVQLVESGGGLVQAGGSLRLSCAASGITFRNYAMGWYRQAPGKERELVADITTGGSTYADSVKGRFTISRDNAKNTVYLQMNSLKPEDTAVYDCAADRDFRTPRLYYWGQGTQVTVSS	low polyreactivity
QVHLVESGGGLVQAGGILRLSCAASGFIFVRNAMGWYRQERGKEREFVAAINSSGGRTYYADSVKGRFTISRDNAKNTVYLQMNSLKPEDTAVYYCAARSQPKKFYYWGQGTQVTVSS	high polyreactivity
QVQLVESGGGLVQAGGSLRLSCAASGRTFTPYAMGWYRQAPGKERELVATISSGTSTNYADSVKGRFTISRDNAKNTVYLQMNSLKPEDTAVYYCAADGYTYKFDYWGQGTQVTVSS	low polyreactivity
QVQLVESGGGLVQAGGSLRLSCAASGRIIGYYVMGWYRQAPGKERELVAAISSRTGTTYYADSVKGRFTISRDYAKNTVYLQMNRLKPEDTAVYYCNARELTTYWSFDYHHSEYDYWGQGTQVTVSS	high polyreactivity
QDQLVESGGGLVQAGGSLRLSCAASGSIFRYYVRGWYREAPGKERELVAAISKSGGSTYYADSVKGRFTISRDNAKNTVYLQMNSLKPEDTAVYYCAAGNTRGGDFNYWGQGTQVTVSS	high polyreactivity

Sequence	polyreactivity (PSR sort gate)
QVQLVESGGGLVQAGGSLRLSCAASGSTFYDYAMGWYRQAPGKERELVAAINWSSDTTYYADSVKGRFTISRDNAKNTVYLQMNSLKPEDTAVYYCATDSAYRGYDYWGQGTQVTVSS	low polyreactivity
QDQHVESGGGLVQAGGSLRLSCAASGNTFIRNVMGWYRLAPGKERELVAGIRTGGSTFYADSVKGRFTISRDNAKNTVYLQMNSLKPEDTAVYYCKAEVGDEGNLPYVIRPMDYWGQGTQVTVSS	low polyreactivity
QVQLVESGGGLVQAGGGLRLSCAASGSIFGSYAMGWYRQAPAKERELVAGITYRGSSTYYADSVKGRFTISRDNAKNTVYLQMTSLKPEDSAVYYCAADPVFDEYDYWGQGTQVTVSS	low polyreactivity
QVQLVESGGGLVQAGGSLRLSFAASGSTFNIYTMGWYRQAPGKEWELVARITFSGGSTYYADSVKGRFTISRDYAKNTVYLQMNSLKPEDTAVYYCAVRVYRVDHFCYDYWGQGTQVTVSS	high polyreactivity
QVQLEESGGGLVQAGGSLRLSCAASGRIFYQNAMGWYRQAPGKERQLVADIASGGSTSYADSVKGRFTISRDNAKNTVYIQMNSLKPEDTAVYYCATAVLYGDGWYYYWGQGTQVTVSS	low polyreactivity
QVQLVESGGGLVQAGGSLRLSCAASGFIFYRYAMGWYRQAPGKESELVAAISWGGGSTTYYADSVKGRFTISRDNAKNTVYLQMNSLKPEDTAVYYCAAYIVKGYGSEYYYWGQGTQVTVSS	low polyreactivity
QVQLVESGGGLVQAGGSLRLSCAASGGIFRINAMGWYRQAPGKERELVAAITSSVGSTYYADSVKGRFTISRDNAKNTVYLQMNSLKPEDTAVYYCAAVITRDAIVFSTEYDYWGQGTQVTVSS	low polyreactivity
QVQLVESGGGLVQAGGSLRLSCAASGSTFTYYAMGWYRQAPGKERELVAAISNSGTSTYYADSVKGRFTISRDNAKNTVYLQMNSLKPEDTAVYYCNAYSDLFGSYTDLGEYDYWGQGTQVTVSS	low polyreactivity
QVQLVESGGVLVQAGGSLRLSCAASGSIFILYAMGWYRQAPGKEREFVAAITYRGGSTKYADSVKGRFTISRDNAKNNVYLQMNRLKPEDTAVYYCAAGGYWRSPWGSVSRYGYWGQGTQVTVSS	high polyreactivity
QVQLVESGGGLVQAGGSLRLSCAASGSIFFGNAMGWYRQAPGKERELVAAISTTGGSTYYADSVKGRFTISRDNAKNTVYLQMNSLKPEDTAVYYCNADRATWWEQWWYDYWGQGTLVTVSS	low polyreactivity
QVQLVESSGGLVQAGGSLRLSCAASGRTFTSNAMGWYRQAPGKERELVAAISNGGSTYYADSVKGRFTISRDNAKNTVYLQMNSLKPEDTAVYYCAAQYRVLWYSYYYWGQGTQVTVSS	high polyreactivity
QVQLVESGGGLVQAGGSLRLSCAASGGIFGFNAMGWYRQAPGKERELVADISDGVRTNYADSVKGRFTISRDNAKNTVFLQMNSLKPEDTAVYYCATDGLFYVDGSWTLGYWGQGTQVTVSS	low polyreactivity
QVQLVESGGGLDQAGGSLRLSCAASGIIFVSNAMGWYRQAPGKERELVATITWTGGSTYYADSVKGRFTISRDNAKNTVYLQMNSLKPEDTAVYYCAADLSIRYDHEYGYWGQGTQVTVSS	low polyreactivity
QVQLVESGGGIVQAGGSLRKSCAASGFTFDENAMGWYRQAPGINYSGASTYYADSVKGRFTISRDNAKNTVYLQMNSLKPEDTAVYYCAAEVVAQMNYWGQGTQVTVSS	low polyreactivity
QVQLVESGGGLVQAGGSLRLSCAASGIIFDGNAMGWYRQAPGKERELVASITSDSSTNYADSVKGRFTISRDNAKNTVYLQMNSLKPEDTAVYYCAADHWIAPRRDYWGQGTQVTVSS	low polyreactivity
QVQLVESGGAIVQAGGSLRLSCAASGRIYYPYAMGWYRQAPGKERELVAAISSGVSTNYADSVKGRFTITRDNAKNTVYLQMNSLNPEDTAVYYCARTYFRFSSSYYKAVSHGFWGQGTQVTVSS	high polyreactivity
QVQLVESGGGLVQAGGSLRLSCAASGSISNYYGMGWYRQAPGKERELVAAITWGGGRTNYADSVKGRFTISRDNAKNTVYLQMNSLKPEDTAVYYCAKVSVTHRYGAGGDYWGQGTQVTVSS	low polyreactivity
QVQLVESGGGLVQAGGSLRLSCAASGSTFYYNAMGWYRQAPGKEREFVASISWRGGRTYYADSVKGRFTISRDNAKNTVYLQMNSLKPEDTAVYYCAKGYLALGQPDDYWGQGTQVTVSS	high polyreactivity
QVQLVESGGGLVQAGGSLRLSCAASGRTFGGNAMGWYRQAPGKERELVAGINISGGSTNYADTVKGRFTISRDNAKNTVYLQMNSLKPEDTAVYYCNADTAVYAWDDDYWGQGTQVTVSS	low polyreactivity
QVQLVESGGGLVQAGGSLRLSCAASGSIFYGNAMGWYRQAPGKERELVAGISWSGGSTYYADSVKGRFTISRDNAKNTVYFQMNSLKPEDTAVYYCATVADEPRAYSGYEESDYWGQGTQVTVSS	low polyreactivity
QVHLQESGAGLVQVGGSQRLSCAASGNIFYNYAMGWSRHAQGKEREFDATINHGTSINYADSVKGRFTISRDNAKNNVYLQMNCLKPEDTAVYYCAADLSWTDNLFYWGQGTQVSVSS	low polyreactivity
